Test results published in the Human Domainome abundance scans (Beltran et al. 2025).
± gives the uncertainty stated by the source.

B1: Transcription elongation factor A N-terminal and central domain-containing protein, residues 30 to 77; numbered along this chain, Q8N8B7 (parent)
chain: LTELETIYVTKEHLQETDVVRAVYRVLKNCPSVALKKKAKCLLSKWKA

Variants of: B1
Assay: abundance fitness (aPCA) (normalised: wild type 0, dead -1); higher = more abundant; growth selection in yeast, the domain comes from the species named
Conditions: Homo sapiens

| Variant | abundance fitness |
| --- | --- |
| V20H | -0.491 ± 0.24 |
| V20W | 0.07 ± 0.1 |
| V20S | -0.594 ± 0.13 |
| V20T | -0.414 ± 0.24 |
| V20L | 0.113 ± 0.079 |
| V20A | 0.015 ± 0.1 |
| V20Y | -0.301 ± 0.14 |
| V20D | -0.215 ± 0.15 |
| V20C | -0.034 ± 0.11 |
| V20Q | -0.633 ± 0.23 |
| V20G | -0.109 ± 0.086 |
| V20N | -0.741 ± 0.39 |
| V20P | -0.19 ± 0.12 |
| V20E | -0.561 ± 0.18 |
| V20F | 0.071 ± 0.21 |
| V19E | -0.618 ± 0.2 |
| V19D | -0.72 ± 0.38 |
| V19I | -0.133 ± 0.16 |
| V19A | -0.022 ± 0.11 |
| V19P | -0.261 ± 0.13 |
| V19R | 0.037 ± 0.09 |
| V19H | -0.454 ± 0.18 |
| V19Y | -0.595 ± 0.21 |
| V19K | -0.39 ± 0.14 |

| Variant | abundance fitness |
| --- | --- |
| V19S | -0.481 ± 0.1 |
| V19N | -0.695 ± 0.43 |
| V19Q | -0.464 ± 0.21 |
| V19W | -0.01 ± 0.15 |
| V19G | -0.094 ± 0.082 |
| V19F | -0.362 ± 0.18 |
| V19M | 0.037 ± 0.14 |
| V19L | -0.121 ± 0.092 |
| V19T | -0.347 ± 0.12 |
| D18G | 0.354 ± 0.069 |
| D18L | -0.077 ± 0.097 |
| D18K | -0.136 ± 0.11 |
| D18A | 0.098 ± 0.1 |
| D18F | 0.169 ± 0.17 |
| D18I | -0.263 ± 0.26 |
| D18T | 0.158 ± 0.1 |
| D18H | 0.049 ± 0.14 |
| D18E | -0.382 ± 0.1 |
| D18Q | -0.07 ± 0.12 |
| D18S | 0.353 ± 0.084 |
| D18C | -0.09 ± 0.19 |
| D18Y | 0.057 ± 0.14 |
| D18W | 0.172 ± 0.12 |
| D18R | 0.24 ± 0.084 |

| Variant | abundance fitness |
| --- | --- |
| D18V | -0.094 ± 0.083 |
| D18P | -0.154 ± 0.14 |
| D18M | 0.384 ± 0.14 |
| L14E | 0.336 ± 0.065 |
| L14H | 0.294 ± 0.1 |
| L14P | -0.049 ± 0.12 |
| L14D | 0.184 ± 0.083 |
| L14C | 0.061 ± 0.097 |
| L14V | 0.172 ± 0.065 |
| L14M | 0.16 ± 0.082 |
| L14N | 0.235 ± 0.12 |
| L14K | 0.23 ± 0.082 |
| L14Q | 0.247 ± 0.1 |
| L14Y | -0.124 ± 0.18 |
| L14S | 0.296 ± 0.066 |
| L14W | 0.094 ± 0.06 |
| L14G | 0.252 ± 0.054 |
| L14T | 0.328 ± 0.087 |
| L14R | 0.21 ± 0.057 |
| L14A | 0.241 ± 0.064 |
| R21C | -0.468 ± 0.13 |
| R21N | -0.113 ± 0.15 |
| R21K | -0.246 ± 0.16 |
| R21M | -0.333 ± 0.41 |

| Variant | abundance fitness |
| --- | --- |
| R21F | -0.914 ± 0.42 |
| R21I | -1.03 ± 0.3 |
| R21A | -0.457 ± 0.13 |
| R21V | -0.904 ± 0.15 |
| R21P | -0.514 ± 0.15 |
| R21W | -0.549 ± 0.14 |
| R21E | -0.647 ± 0.3 |
| R21D | -0.759 ± 0.27 |
| R21T | -0.413 ± 0.15 |
| R21H | -0.067 ± 0.16 |
| R21G | -0.042 ± 0.076 |
| R21Y | -0.601 ± 0.28 |
| R21L | -0.88 ± 0.12 |
| T17E | -0.315 ± 0.13 |
| T17V | -0.526 ± 0.098 |
| T17Y | -0.784 ± 0.27 |
| T17R | -0.099 ± 0.072 |
| T17I | -0.654 ± 0.15 |
| T17K | -0.14 ± 0.14 |
| T17L | -0.892 ± 0.14 |
| T17N | 0.149 ± 0.13 |
| T17G | -0.092 ± 0.072 |
| T17F | -0.852 ± 0.24 |
| T17P | 0.057 ± 0.15 |

| Variant | abundance fitness |
| --- | --- |
| T17W | -0.142 ± 0.11 |
| T17M | 0.192 ± 0.15 |
| T17H | -0.37 ± 0.32 |
| T17Q | -0.649 ± 0.18 |
| T17C | -0.103 ± 0.11 |
| T17D | -0.368 ± 0.17 |
| T17S | -0.103 ± 0.1 |
| T17A | -0.43 ± 0.12 |
| E16A | -0.017 ± 0.088 |
| E16N | -0.187 ± 0.15 |
| E16Q | 0.285 ± 0.25 |
| E16G | -0.008 ± 0.084 |
| E16R | 0.123 ± 0.071 |
| E16H | -0.153 ± 0.26 |
| E16T | -0.116 ± 0.12 |
| E16I | -0.28 ± 0.14 |
| E16V | -0.279 ± 0.087 |
| E16F | 0.028 ± 0.14 |
| E16C | -0.03 ± 0.13 |
| E16W | -0.414 ± 0.15 |
| E16Y | -0.004 ± 0.12 |
| E16P | 0.009 ± 0.21 |
| E16D | 0.043 ± 0.13 |
| E16M | 0.041 ± 0.12 |

| Variant | abundance fitness |
| --- | --- |
| E16K | -0.152 ± 0.18 |
| E16S | 0.021 ± 0.093 |
| Q15W | 0.069 ± 0.096 |
| Q15I | -0.46 ± 0.15 |
| Q15L | -0.352 ± 0.084 |
| Q15E | -0.016 ± 0.1 |
| Q15K | 0.209 ± 0.093 |
| Q15R | 0.093 ± 0.071 |
| Q15A | -0.088 ± 0.081 |
| Q15T | -0.213 ± 0.12 |
| Q15Y | -0.562 ± 0.18 |
| Q15F | -0.212 ± 0.16 |
| Q15D | -0.27 ± 0.13 |
| Q15C | -0.002 ± 0.12 |
| Q15S | -0.208 ± 0.083 |
| Q15V | -0.527 ± 0.095 |
| Q15N | -0.388 ± 0.16 |
| Q15H | -0.138 ± 0.17 |
| Q15M | -0.452 ± 0.13 |
| Q15P | 0.134 ± 0.15 |
| A22R | 0.277 ± 0.066 |
| A22Q | -0.082 ± 0.11 |
| A22H | -0.328 ± 0.15 |
| A22F | -0.308 ± 0.13 |

| Variant | abundance fitness |
| --- | --- |
| A22D | -0.209 ± 0.095 |
| A22M | -0.053 ± 0.1 |
| A22K | 0.082 ± 0.11 |
| A22N | -0.099 ± 0.13 |
| A22E | -0.328 ± 0.09 |
| A22I | -0.419 ± 0.2 |
| A22P | -0.143 ± 0.096 |
| A22V | -0.37 ± 0.079 |
| A22G | -0.046 ± 0.066 |
| A22C | -0.206 ± 0.095 |
| A22S | -0.007 ± 0.09 |
| A22L | -0.119 ± 0.074 |
| H13M | -0.133 ± 0.084 |
| H13T | 0 ± 0.071 |
| H13Q | -0.078 ± 0.086 |
| H13S | 0.02 ± 0.063 |
| H13V | -0.698 ± 0.094 |
| H13I | -0.668 ± 0.099 |
| H13N | 0.07 ± 0.078 |
| H13R | -0.126 ± 0.066 |
| H13Y | -0.479 ± 0.073 |
| H13K | 0.106 ± 0.083 |
| H13L | -0.842 ± 0.078 |
